The Kd is a measure of binding affinity in units of concentration. Broadly, the koff is a measure of how fast the partners let go of each other. Low values mean slow dissociation, high ones fast dissociation. A word on the kon: it is a measure of how fast the partners come together. A higher kon goes with faster complex formation.

This experiment deals with CEA抗原 (癌胚抗原, Carcinoembrynio Antigen), soluble antigen (UniProt P06731). The experiment in a line: SPR (Biacore), antibody immobilised on chip, antigen in solution, 1:1 binding. On the technique in general: SPR reads the build-up and loss of mass on a sensor chip optically.
Chain of UniProt P06731 (P06731 35-685 limits assumed): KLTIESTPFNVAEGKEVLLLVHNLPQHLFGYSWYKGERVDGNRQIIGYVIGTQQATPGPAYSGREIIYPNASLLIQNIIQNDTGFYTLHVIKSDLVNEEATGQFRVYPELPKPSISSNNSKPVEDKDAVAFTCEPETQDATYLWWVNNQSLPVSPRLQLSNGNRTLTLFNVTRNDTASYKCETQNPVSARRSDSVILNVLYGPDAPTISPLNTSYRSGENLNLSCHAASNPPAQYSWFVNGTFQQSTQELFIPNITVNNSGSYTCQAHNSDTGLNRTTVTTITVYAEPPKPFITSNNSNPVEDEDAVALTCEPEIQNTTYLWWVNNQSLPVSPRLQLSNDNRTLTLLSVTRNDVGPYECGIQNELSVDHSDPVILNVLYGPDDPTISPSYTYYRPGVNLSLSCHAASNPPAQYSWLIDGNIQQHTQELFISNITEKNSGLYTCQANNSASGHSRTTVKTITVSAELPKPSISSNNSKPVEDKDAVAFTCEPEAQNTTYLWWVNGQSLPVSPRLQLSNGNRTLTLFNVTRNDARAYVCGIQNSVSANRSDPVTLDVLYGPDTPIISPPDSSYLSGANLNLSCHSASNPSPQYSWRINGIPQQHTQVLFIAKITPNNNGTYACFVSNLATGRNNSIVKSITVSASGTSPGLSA

B1: OLD-2ND-3-H6-scFv-mIgG1 (Fc fusion, part only; not given: linker and mouse Fc tag, not shown: a dimerising Fc or GST)
chain, part: ETTLTQSPGTLSLSPGERATLSCRASQSVNNNFLGWYQQRVGQAPRLLIYGASSRATGIPDRFSGSGSGTDFTLTISRLEPEDFAVYYCQQYGSSPLTFGGGTKVEIKMAQVQLQESGGGSVQPGGSLRLSCAASGFTFSSYAMSWVRQAPGKGLEWVSHISGSGGNTYYADSVKGRFTISRDNSKNTLYLQMNSLRAEDTAVYYCAKSWGSSNYGTFDIWGQGTVVTVSS
Turning to B1, the dissociation constant Kd turned out to be 0.0431 µM, the koff was determined as 0.0111 s⁻¹ and the on-rate (kon) is 259000 M⁻¹ s⁻¹.
